According to patent publication US20240156864A1:

Target: CAR19.28ζ
Assay: co-IP with anti-CAR19 Ab from CAR-T cell lysate, LC-MS/MS

Chain of CAR19.28ζ (chain, as listed by the source limits assumed): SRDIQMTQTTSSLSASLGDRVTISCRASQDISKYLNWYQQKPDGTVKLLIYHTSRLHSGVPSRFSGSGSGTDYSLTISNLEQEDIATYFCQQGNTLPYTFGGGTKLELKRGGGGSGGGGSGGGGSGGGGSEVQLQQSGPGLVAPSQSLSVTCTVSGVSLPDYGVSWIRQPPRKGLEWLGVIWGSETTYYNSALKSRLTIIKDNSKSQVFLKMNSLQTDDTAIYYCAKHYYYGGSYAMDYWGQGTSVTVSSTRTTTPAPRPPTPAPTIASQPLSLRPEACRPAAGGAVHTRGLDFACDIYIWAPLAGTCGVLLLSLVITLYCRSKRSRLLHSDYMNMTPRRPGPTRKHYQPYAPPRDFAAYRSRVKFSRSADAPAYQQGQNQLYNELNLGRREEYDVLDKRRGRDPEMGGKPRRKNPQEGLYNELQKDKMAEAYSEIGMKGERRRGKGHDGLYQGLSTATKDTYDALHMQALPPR

Area	Coverage	Peptides (number identified)	Substance
1.59e+08	32%	–	CD8α (from UniProt P01732 22-235) (receptor)
6.84e+08	32%	–	LCK (from UniProt P06239 2-509) (enzyme)
1.79e+08	13%	–	PIK3CD (from UniProt O00329 1-1044) (enzyme)
2.3e+08	17%	–	PIK3R1 (from UniProt P27986 2-724)
1.89e+07	3%	2	THEMIS (from UniProt Q8N1K5 1-641)
